Drawing on PMC5986199, this text covers stoichiometry N for one molecule.

Broadly, the stoichiometry N is a count of units in the complex or per binding partner.

This test has as its target α-NAC subunit of C. elegans NAC (C. elegans). The test is described as follows: cross-linking; BS3 (d0/d4) at 20- or 50-fold molar excess, 20 uM NAC alone or + 20 uM substrate, 10 mM sodium phosphate pH 7.0, room temperature 1 h; SDS-PAGE, in-gel tryptic digest, LC-MS/MS.

B1: β-NAC subunit of C. elegans NAC (natural protein)
chain: MDSKAIAERIKKLQAQQEHVRIGGKGTPRRKKKVIHKTAAADDKKLQSNLKKLSVTNIPGIEEVNMIKDDGTVIHFNNPKVQTSVPANTFSVTGSADNKQITEMLPGILNQLGPESLTHLKKLANNVTKLGPDGKGEDEDVPELVGDFDAASKNETKADEQ
Turning to B1, the stoichiometry N is 1.
